Target: receptor-binding domain (RBD) of SARS-CoV-2 (SARS-CoV-2, UniProt P0DTC2)
Assay: SPR
Details: both partners purified

B1: trastuzumab Fab with LCB1 insertion (Fab)
VH: EVQLVESGGGLVQPGGSLRLSCAASGFNIKDTYIHWVRQAPGKGLEWVARIYPTNGYTRYADSVKGRFTISADTSKNTAYLQMNSLRAEDTAVYYCSRWGGDGGSDKEWILQKIYEIMRLLDELGHAEASMRVSDLIYEFMKKGGSGFYAMDYWGQGTLVTVSS
VL: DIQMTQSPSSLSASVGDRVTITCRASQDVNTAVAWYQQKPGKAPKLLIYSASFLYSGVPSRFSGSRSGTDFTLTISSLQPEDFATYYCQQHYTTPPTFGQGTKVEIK
notes: also called trast-LCB1; trastuzumab +LCB1
  Kd: 0.9 nM

Reference: article PMC8602281 (Nature Communications, 2021)
